Measured values as given in article PMC11259198.

Assays:
Assay in all cases: SEC
[1] = target: globular N-terminal domain of human apolipoprotein A-I (residue fragment 1–184), Glu34Lys (human)
[2] = target: globular N-terminal domain of human apolipoprotein A-I (residue fragment 1–184), Leu159Arg (human)
[3] = target: globular N-terminal domain of human apolipoprotein A-I (residue fragment 1–184), Phe71Tyr (human)
[4] = target: globular N-terminal domain of human apolipoprotein A-I (residue fragment 1–184), wild type (human)

globular N-terminal domain of human apolipoprotein A-I (residue fragment 1–184), Glu34Lys (domain or fragment)
stoichiometry N [1]: 2

globular N-terminal domain of human apolipoprotein A-I (residue fragment 1–184), Leu159Arg (domain or fragment)
stoichiometry N [2]: 2

globular N-terminal domain of human apolipoprotein A-I (residue fragment 1–184), Phe71Tyr (domain or fragment)
stoichiometry N [3]: 2

globular N-terminal domain of human apolipoprotein A-I (residue fragment 1–184), wild type (domain or fragment)
stoichiometry N [4]: 2
